One block for each binder: values may come before it.
Experiments:
4H2729-AA = target: T1, 4H2729-AA; experiment: two-hybrid library CCmax;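 further: natural log of median RNA to DNA barcode read ratio; higher means stronger binding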
T1 chain: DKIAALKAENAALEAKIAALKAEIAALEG

4H2754-AA = target: T2, 4H2754-AA; experiment: two-hybrid library CCmax; details: mean of both orientations;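 further: natural log of median RNA to DNA barcode read ratio; higher means stronger binding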
T2 chain: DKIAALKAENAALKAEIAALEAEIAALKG

4H2837-AA = target: T3, 4H2837-AA; experiment: two-hybrid library CCmax; details: mean of both orientations;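 further: natural log of median RNA to DNA barcode read ratio; higher means stronger binding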
T3 chain: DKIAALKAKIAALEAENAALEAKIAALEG

4H2883-AA = target: T4, 4H2883-AA; experiment: two-hybrid library CCmax; details: mean of both orientations;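 further: natural log of median RNA to DNA barcode read ratio; higher means stronger binding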
T4 chain: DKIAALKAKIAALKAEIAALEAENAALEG

4H2944-AA = target: T5, 4H2944-AA; experiment: two-hybrid library CCmax; details: mean of both orientations
T5 chain: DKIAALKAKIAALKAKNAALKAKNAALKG

4H2949-AA = target: T6, 4H2949-AA; experiment: two-hybrid library CCmax; details: mean of both orientations
T6 chain: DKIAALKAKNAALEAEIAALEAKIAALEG

4H3112-AA = target: T7, 4H3112-AA; experiment: two-hybrid library CCmax; details: mean of both orientations
T7 chain: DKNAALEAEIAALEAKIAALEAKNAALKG

4H317-AA = target: T8, 4H317-AA; experiment: two-hybrid library CCmax; details: mean of both orientations
T8 chain: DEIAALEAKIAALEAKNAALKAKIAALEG

4H3343-AA = target: T9, 4H3343-AA; experiment: two-hybrid library CCmax; details: mean of both orientations
T9 chain: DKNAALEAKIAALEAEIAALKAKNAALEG

4H335-AA = target: T10, 4H335-AA; experiment: two-hybrid library CCmax; details: mean of both orientations
T10 chain: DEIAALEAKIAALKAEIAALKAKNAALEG

4H342-AA = target: T11, 4H342-AA; experiment: two-hybrid library CCmax; details: mean of both orientations
T11 chain: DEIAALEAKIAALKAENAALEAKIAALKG

4H3427-AA = target: T12, 4H3427-AA; experiment: two-hybrid library CCmax; details: mean of both orientations
T12 chain: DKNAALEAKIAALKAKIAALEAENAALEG

4H3606-AA = target: T13, 4H3606-AA; experiment: two-hybrid library CCmax; details: mean of both orientations
T13 chain: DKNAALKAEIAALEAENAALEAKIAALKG

4H3627-AA = target: T14, 4H3627-AA; experiment: two-hybrid library CCmax; details: mean of both orientations
T14 chain: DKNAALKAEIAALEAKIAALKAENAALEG

4H3655-AA = target: T15, 4H3655-AA; experiment: two-hybrid library CCmax; details: mean of both orientations
T15 chain: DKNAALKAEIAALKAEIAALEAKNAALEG

4H3844-AA = target: T16, 4H3844-AA; experiment: two-hybrid library CCmax; details: mean of both orientations
T16 chain: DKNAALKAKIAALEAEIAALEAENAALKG

4H3921-AA = target: T17, 4H3921-AA; experiment: two-hybrid library CCmax; details: mean of both orientations
T17 chain: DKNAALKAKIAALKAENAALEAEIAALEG

4H429-AA = target: T18, 4H429-AA; experiment: two-hybrid library CCmax; details: mean of both orientations
T18 chain: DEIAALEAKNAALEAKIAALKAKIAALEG

4H454-AA = target: T19, 4H454-AA; experiment: two-hybrid library CCmax; details: mean of both orientations
T19 chain: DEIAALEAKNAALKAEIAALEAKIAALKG

4H48-AA = target: T20, 4H48-AA; experiment: two-hybrid library CCmax; details: mean of both orientations
T20 chain: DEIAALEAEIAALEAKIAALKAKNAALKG

4H566-AA = target: T21, 4H566-AA; experiment: two-hybrid library CCmax; details: mean of both orientations
T21 chain: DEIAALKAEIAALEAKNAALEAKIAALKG

4H605-AA = target: T22, 4H605-AA; experiment: two-hybrid library CCmax; details: mean of both orientations
T22 chain: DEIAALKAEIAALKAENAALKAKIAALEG

4H678-AA = target: T23, 4H678-AA; experiment: two-hybrid library CCmax; details: mean of both orientations
T23 chain: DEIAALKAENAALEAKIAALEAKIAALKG

4H717-AA = target: T24, 4H717-AA; experiment: two-hybrid library CCmax; details: mean of both orientations
T24 chain: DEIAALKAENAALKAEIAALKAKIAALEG

4H780-AA = target: T25, 4H780-AA; experiment: two-hybrid library CCmax; details: mean of both orientations
T25 chain: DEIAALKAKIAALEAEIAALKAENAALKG

4H794-AA = target: T26, 4H794-AA; experiment: two-hybrid library CCmax; details: mean of both orientations
T26 chain: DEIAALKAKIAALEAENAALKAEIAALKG

4H881-AA = target: T27, 4H881-AA; experiment: two-hybrid library CCmax; details: mean of both orientations
T27 chain: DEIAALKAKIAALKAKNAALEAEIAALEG

4H906-AA = target: T28, 4H906-AA; experiment: two-hybrid library CCmax; details: mean of both orientations
T28 chain: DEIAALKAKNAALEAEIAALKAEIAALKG

4H993-AA = target: T29, 4H993-AA; experiment: two-hybrid library CCmax; details: mean of both orientations
T29 chain: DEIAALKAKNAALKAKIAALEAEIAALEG

N5-AA = target: T30, N5-AA; experiment: two-hybrid library CCmax; details: mean of both orientations
T30 chain: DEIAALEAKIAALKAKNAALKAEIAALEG

N6-AA = target: T31, N6-AA; experiment: two-hybrid library CCmax; details: mean of both orientations
T31 chain: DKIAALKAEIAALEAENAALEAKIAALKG

4H1629-bH = target: T32, 4H1629-bH; experiment: two-hybrid library CCNG1
T32 chain: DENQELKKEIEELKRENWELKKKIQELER

4H1710-bH = target: T33, 4H1710-bH; experiment: two-hybrid library CCNG1
T33 chain: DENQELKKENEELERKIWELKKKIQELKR

4H1804-bH = target: T34, 4H1804-bH; experiment: two-hybrid library CCNG1
T34 chain: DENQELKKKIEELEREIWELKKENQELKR

4H1985-bH = target: T35, 4H1985-bH; experiment: two-hybrid library CCNG1
T35 chain: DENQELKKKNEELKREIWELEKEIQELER

4H3129-bH = target: T36, 4H3129-bH; experiment: two-hybrid library CCNG1
T36 chain: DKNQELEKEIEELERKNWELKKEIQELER

4H3172-bH = target: T37, 4H3172-bH; experiment: two-hybrid library CCNG1
T37 chain: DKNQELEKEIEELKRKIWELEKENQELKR

4H3414-bH = target: T38, 4H3414-bH; experiment: two-hybrid library CCNG1
T38 chain: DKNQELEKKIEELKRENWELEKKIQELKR

4H3631-bH = target: T39, 4H3631-bH; experiment: two-hybrid library CCNG1
T39 chain: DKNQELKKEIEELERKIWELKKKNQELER

4H3638-bH = target: T40, 4H3638-bH; experiment: two-hybrid library CCNG1
T40 chain: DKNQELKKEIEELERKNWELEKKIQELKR

4H3817-bH = target: T41, 4H3817-bH; experiment: two-hybrid library CCNG1
T41 chain: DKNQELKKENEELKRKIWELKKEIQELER

4H3974-bH = target: T42, 4H3974-bH; experiment: two-hybrid library CCNG1
T42 chain: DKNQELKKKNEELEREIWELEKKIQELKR

4H496-bA = target: T43, 4H496-bA; experiment: two-hybrid library CCNG1
T43 chain: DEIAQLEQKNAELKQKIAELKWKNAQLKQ

4H570-bH = target: T44, 4H570-bH; experiment: two-hybrid library CCNG1
T44 chain: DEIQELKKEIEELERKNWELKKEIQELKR

4H584-bH = target: T45, 4H584-bH; experiment: two-hybrid library CCNG1
T45 chain: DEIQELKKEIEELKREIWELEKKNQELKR

4H619-bH = target: T46, 4H619-bH; experiment: two-hybrid library CCNG1
T46 chain: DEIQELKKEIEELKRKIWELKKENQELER

4H850-bH = target: T47, 4H850-bH; experiment: two-hybrid library CCNG1
T47 chain: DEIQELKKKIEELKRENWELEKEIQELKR

4H906-bH = target: T48, 4H906-bH; experiment: two-hybrid library CCNG1
T48 chain: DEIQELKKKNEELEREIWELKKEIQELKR

O6-bP = target: T49, O6-bP; experiment: two-hybrid library CCNG1
T49 chain: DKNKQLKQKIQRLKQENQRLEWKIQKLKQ

P8A-bH = target: T50, P8A-bH; experiment: two-hybrid library CCNG1
T50 chain: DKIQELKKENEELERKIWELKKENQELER

4H1449-bH = target: T51, 4H1449-bH; experiment: two-hybrid library CCNG1
T51 chain: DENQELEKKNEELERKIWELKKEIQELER

4H1544-bH = target: T52, 4H1544-bH; experiment: two-hybrid library CCNG1
T52 chain: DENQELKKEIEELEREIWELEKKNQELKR

4H1899-bH = target: T53, 4H1899-bH; experiment: two-hybrid library CCNG1
T53 chain: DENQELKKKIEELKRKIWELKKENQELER

4H3592-bA = target: T54, 4H3592-bA; experiment: two-hybrid library CCNG1
T54 chain: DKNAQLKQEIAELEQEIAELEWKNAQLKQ

4H3613-bH = target: T55, 4H3613-bH; experiment: two-hybrid library CCNG1
T55 chain: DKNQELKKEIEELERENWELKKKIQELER

4H3628-bH = target: T56, 4H3628-bH; experiment: two-hybrid library CCNG1
T56 chain: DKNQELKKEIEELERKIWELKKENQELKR

4H3858-bH = target: T57, 4H3858-bH; experiment: two-hybrid library CCNG1
T57 chain: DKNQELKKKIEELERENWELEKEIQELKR

- interaction score (4H2729-AA): 1.46
- interaction score (4H2754-AA): 2.26
- interaction score (4H2837-AA): 0.924
- interaction score (4H2883-AA): -1.1
- interaction score (4H2944-AA): -1.66
- interaction score (4H2949-AA): 1.85
- interaction score (4H3112-AA): -0.662
- interaction score (4H317-AA): 1.37
- interaction score (4H3343-AA): -1.17
- interaction score (4H335-AA): -0.622
- interaction score (4H342-AA): 2.18
- interaction score (4H3427-AA): -1.33
- interaction score (4H3606-AA): -0.747
- interaction score (4H3627-AA): 1.22
- interaction score (4H3655-AA): -0.901
- interaction score (4H3844-AA): -1.03
- interaction score (4H3921-AA): -1.21
- interaction score (4H429-AA): 1.68
- interaction score (4H454-AA): 1.94
- interaction score (4H48-AA): -0.497
- interaction score (4H566-AA): 0.192
- interaction score (4H605-AA): -1.37
- interaction score (4H678-AA): 1.97
- interaction score (4H717-AA): 1.12
- interaction score (4H780-AA): -1.31
- interaction score (4H794-AA): -1.09
- interaction score (4H881-AA): -0.0189
- interaction score (4H906-AA): 1.15
- interaction score (4H993-AA): 1.96
- interaction score (N5-AA): 0.643
- interaction score (N6-AA): 1.56
Binder: DKIAALKAENAALEAKIAALKAEIAALEG [4H2729-AA]

- interaction score (4H1629-bH): -0.954
- interaction score (4H1710-bH): -2.67
- interaction score (4H1804-bH): -1.81
- interaction score (4H1985-bH): -0.16
- interaction score (4H3129-bH): -0.581
- interaction score (4H3172-bH): -0.534
- interaction score (4H3414-bH): -1.1
- interaction score (4H3631-bH): -0.299
- interaction score (4H3638-bH): -1.09
- interaction score (4H3817-bH): -0.618
- interaction score (4H3974-bH): 0.236
- interaction score (4H496-bA): -2.88
- interaction score (4H570-bH): -1.69
- interaction score (4H584-bH): 0.366
- interaction score (4H619-bH): 0.577
- interaction score (4H850-bH): 1.03
- interaction score (4H906-bH): -0.794
- interaction score (O6-bP): 1.7
- interaction score (P8A-bH): 0.887
Binder: DENQELKKEIEELKRENWELKKKIQELER [4H1629-bH]

- interaction score (4H1449-bH): -1.25
- interaction score (4H1544-bH): -0.787
- interaction score (4H1629-bH): -0.891
- interaction score (4H1710-bH): -0.366
- interaction score (4H1804-bH): -0.461
- interaction score (4H1899-bH): -0.126
- interaction score (4H1985-bH): -0.843
- interaction score (4H3129-bH): -0.319
- interaction score (4H3172-bH): -0.0351
- interaction score (4H3414-bH): -0.216
- interaction score (4H3592-bA): -0.126
- interaction score (4H3613-bH): -0.131
- interaction score (4H3628-bH): -0.479
- interaction score (4H3631-bH): 0.733
- interaction score (4H3638-bH): -0.0745
- interaction score (4H3817-bH): -0.644
- interaction score (4H3858-bH): -0.658
- interaction score (4H3974-bH): 1.15
- interaction score (4H570-bH): -0.108
- interaction score (4H584-bH): -0.0853
- interaction score (4H619-bH): -2.2
- interaction score (4H850-bH): -0.674
- interaction score (4H906-bH): -1.2
Binder: DENQELEKKNEELERKIWELKKEIQELER [4H1449-bH]

— paper PMC10397247
